# Assay results: article PMC9939296 (Acta Pharmaceutica Sinica. B, 2022)
# Columns and labels:
# [1] = target: T1, DgpA/B/C (human intestinal bacterium PUE, UniProt A0A3Q9WUX0+A0A3Q9WWX8+A0A3Q9WXL1); assay: inhibition of puerarin cleavage, HPLC; assay type: biochemical; conditions: proposed competitive with puerarin at DgpA pocket; substrate puerarin
# T1 sequence (A0A3Q9WWX8 1-367): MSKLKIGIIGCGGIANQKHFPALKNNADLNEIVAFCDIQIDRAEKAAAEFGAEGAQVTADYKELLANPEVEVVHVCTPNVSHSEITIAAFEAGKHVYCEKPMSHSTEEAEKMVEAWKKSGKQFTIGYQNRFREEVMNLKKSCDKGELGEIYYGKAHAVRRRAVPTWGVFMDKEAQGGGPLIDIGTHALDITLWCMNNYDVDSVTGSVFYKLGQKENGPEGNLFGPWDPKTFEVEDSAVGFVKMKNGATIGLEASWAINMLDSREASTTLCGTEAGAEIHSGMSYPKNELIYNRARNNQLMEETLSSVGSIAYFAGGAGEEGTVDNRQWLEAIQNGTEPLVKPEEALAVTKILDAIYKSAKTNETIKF
# T1 sequence (A0A3Q9WXL1 1-324): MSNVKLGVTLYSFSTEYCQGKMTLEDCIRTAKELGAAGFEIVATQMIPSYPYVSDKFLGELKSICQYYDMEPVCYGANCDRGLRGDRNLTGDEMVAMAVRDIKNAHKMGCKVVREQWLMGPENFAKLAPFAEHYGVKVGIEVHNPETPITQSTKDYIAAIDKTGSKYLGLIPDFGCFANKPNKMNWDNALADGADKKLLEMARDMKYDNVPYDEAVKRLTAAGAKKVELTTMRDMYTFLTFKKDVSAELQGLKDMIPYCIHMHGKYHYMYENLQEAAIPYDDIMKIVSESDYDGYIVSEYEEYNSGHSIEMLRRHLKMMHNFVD
# T1 sequence (A0A3Q9WUX0 1-142): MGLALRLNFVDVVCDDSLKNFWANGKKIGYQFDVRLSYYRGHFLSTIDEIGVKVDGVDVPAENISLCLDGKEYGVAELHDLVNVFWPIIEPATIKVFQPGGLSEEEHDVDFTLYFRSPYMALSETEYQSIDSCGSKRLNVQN
# [2] = target: DgpA (human intestinal bacterium PUE); assay: native gel or EMSA
# [3] = target: DgpA (human intestinal bacterium PUE); assay: SEC
stoichiometry N [2],stoichiometry N [3],Molecule,inhibition ratio [1]
,,OC[C@H]1OC(O)[C@H](O)[C@@H](O)[C@@H]1O (stereo partly drawn) [glucose],cleaving activity of DgpA/B/C was significantly attenuated proportional to glucose concentration
6,6,DgpA (enzyme),
